PMC4434323

Assays:
[1] = target: T1, skn-1 (T19E7.2) (Caenorhabditis elegans) (UniProt P34707)
T1 sequence: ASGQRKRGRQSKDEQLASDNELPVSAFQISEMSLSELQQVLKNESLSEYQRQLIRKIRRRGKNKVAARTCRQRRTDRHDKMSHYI

[2] = target: T2, nhr-70 (Y51A2D.17) (Caenorhabditis elegans) (UniProt G5EEL3)
T2 sequence: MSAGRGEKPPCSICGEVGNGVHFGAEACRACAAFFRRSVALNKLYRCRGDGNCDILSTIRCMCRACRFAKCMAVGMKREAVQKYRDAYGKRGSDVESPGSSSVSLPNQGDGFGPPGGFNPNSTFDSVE

[3] = target: T3, mbr-1 (T01C1.2) (Caenorhabditis elegans) (UniProt G5EGQ5)
T3 sequence: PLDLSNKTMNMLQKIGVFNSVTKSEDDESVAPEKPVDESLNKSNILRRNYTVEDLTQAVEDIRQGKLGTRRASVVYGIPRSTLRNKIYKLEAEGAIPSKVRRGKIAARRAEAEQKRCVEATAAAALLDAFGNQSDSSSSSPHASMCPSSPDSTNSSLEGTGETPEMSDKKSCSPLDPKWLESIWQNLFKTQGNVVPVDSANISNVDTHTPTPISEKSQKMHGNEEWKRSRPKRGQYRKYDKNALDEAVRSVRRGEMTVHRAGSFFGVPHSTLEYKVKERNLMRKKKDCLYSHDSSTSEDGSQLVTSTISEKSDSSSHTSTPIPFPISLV

[4] = target: T4, nhr-232 (Y22F5A.1) (Caenorhabditis elegans) (UniProt A0A486WVR6)
T4 sequence: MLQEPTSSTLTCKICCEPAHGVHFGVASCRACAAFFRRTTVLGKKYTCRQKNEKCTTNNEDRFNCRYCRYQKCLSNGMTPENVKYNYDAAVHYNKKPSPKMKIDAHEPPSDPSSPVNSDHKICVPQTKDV

[5] = target: T5, nhr-66 (T09A12.4) (Caenorhabditis elegans) (UniProt H2KYJ8)
T5 sequence: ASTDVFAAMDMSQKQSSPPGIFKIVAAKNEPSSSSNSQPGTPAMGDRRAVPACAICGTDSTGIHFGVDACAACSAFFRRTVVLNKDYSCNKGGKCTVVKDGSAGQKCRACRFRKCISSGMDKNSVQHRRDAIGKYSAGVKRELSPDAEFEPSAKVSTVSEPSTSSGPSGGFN

[6] = target: T6, nhr-142 (F44E7.8) (Caenorhabditis elegans) (UniProt J7SF93)
T6 sequence: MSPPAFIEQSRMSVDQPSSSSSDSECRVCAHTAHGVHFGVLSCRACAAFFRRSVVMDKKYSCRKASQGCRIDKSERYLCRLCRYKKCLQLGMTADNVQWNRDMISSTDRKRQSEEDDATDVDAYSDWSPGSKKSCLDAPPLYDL

[7] = target: T7, nhr-42 (C33G8.6) (Caenorhabditis elegans) (UniProt O76828)
T7 sequence: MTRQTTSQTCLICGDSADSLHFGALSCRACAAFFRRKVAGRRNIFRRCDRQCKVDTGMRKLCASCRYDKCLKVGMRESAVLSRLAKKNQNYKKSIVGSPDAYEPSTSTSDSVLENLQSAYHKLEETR

[8] = target: T8, odr-7 (T18D3.2) (Caenorhabditis elegans) (UniProt P41933)
T8 sequence: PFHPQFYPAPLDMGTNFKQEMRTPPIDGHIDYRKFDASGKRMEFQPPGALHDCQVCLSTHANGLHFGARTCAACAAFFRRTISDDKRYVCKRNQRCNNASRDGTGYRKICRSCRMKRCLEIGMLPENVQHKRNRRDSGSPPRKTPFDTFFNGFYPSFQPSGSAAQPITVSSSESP

“GATGACTA (double strand) [8-mer GATGACTA]” gave a binding signal (PBM E-score (-0.5 to 0.5)) [1] of 0.489.
For “GCTACAAC (double strand) [8-mer GCTACAAC]”, the binding signal (PBM E-score (-0.5 to 0.5)) [2] was 0.483.
In the case of “GATGACAA (double strand) [8-mer GATGACAA]”, the binding signal (PBM E-score (-0.5 to 0.5)) [1] is reported as 0.498.
“GGGGCCAA (double strand) [8-mer GGGGCCAA]” showed a binding signal (PBM E-score (-0.5 to 0.5)) [3] of 0.488.
With “GACACAAA (double strand) [8-mer GACACAAA]” the binding signal (PBM E-score (-0.5 to 0.5)) [4] was 0.475.
In the case of “GACTACAC (double strand) [8-mer GACTACAC]”, the binding signal (PBM E-score (-0.5 to 0.5)) [2] is reported as 0.49 and the binding signal (PBM E-score (-0.5 to 0.5)) [5] is reported as 0.484.
With “TGACTACA (double strand) [8-mer TGACTACA]” the binding signal (PBM E-score (-0.5 to 0.5)) [2] was 0.491.
For “AGCCCCCC (double strand) [8-mer AGCCCCCC]”, the binding signal (PBM E-score (-0.5 to 0.5)) [3] was 0.491.
“AGGTCACA (double strand) [8-mer AGGTCACA]” was tested, and the binding signal (PBM E-score (-0.5 to 0.5)) [6] was 0.486, the binding signal (PBM E-score (-0.5 to 0.5)) [4] was 0.455 and the binding signal (PBM E-score (-0.5 to 0.5)) [7] was 0.486.
In the case of “GGTCACAA (double strand) [8-mer GGTCACAA]”, the binding signal (PBM E-score (-0.5 to 0.5)) [6] is reported as 0.495 and the binding signal (PBM E-score (-0.5 to 0.5)) [4] is reported as 0.485.
“ACTACAAT (double strand) [8-mer ACTACAAT]” gave a binding signal (PBM E-score (-0.5 to 0.5)) [2] of 0.49, a binding signal (PBM E-score (-0.5 to 0.5)) [5] of 0.488 and a binding signal (PBM E-score (-0.5 to 0.5)) [8] of 0.49.
In the case of “AGGATGAC (double strand) [8-mer AGGATGAC]”, the binding signal (PBM E-score (-0.5 to 0.5)) [1] is reported as 0.489.
Sequence “TAGTCACA (double strand) [8-mer TAGTCACA]” has a binding signal (PBM E-score (-0.5 to 0.5)) [6] of 0.493, a binding signal (PBM E-score (-0.5 to 0.5)) [4] of 0.482 and a binding signal (PBM E-score (-0.5 to 0.5)) [7] of 0.494.
For “CGGCTACA (double strand) [8-mer CGGCTACA]”, the binding signal (PBM E-score (-0.5 to 0.5)) [2] was 0.488.
“AGGGGGGC (double strand) [8-mer AGGGGGGC]” showed a binding signal (PBM E-score (-0.5 to 0.5)) [3] of 0.491.
Sequence “GTCACACA (double strand) [8-mer GTCACACA]” has a binding signal (PBM E-score (-0.5 to 0.5)) [4] of 0.46.
For “AAGTCACA (double strand) [8-mer AAGTCACA]”, the binding signal (PBM E-score (-0.5 to 0.5)) [6] was 0.496, the binding signal (PBM E-score (-0.5 to 0.5)) [4] was 0.498 and the binding signal (PBM E-score (-0.5 to 0.5)) [7] was 0.494.
Sequence “GGCTACAC (double strand) [8-mer GGCTACAC]” has a binding signal (PBM E-score (-0.5 to 0.5)) [2] of 0.487.
“GCTACAAA (double strand) [8-mer GCTACAAA]” showed a binding signal (PBM E-score (-0.5 to 0.5)) [2] of 0.489, a binding signal (PBM E-score (-0.5 to 0.5)) [5] of 0.482 and a binding signal (PBM E-score (-0.5 to 0.5)) [8] of 0.462.
“GGCCCCCC (double strand) [8-mer GGCCCCCC]” showed a binding signal (PBM E-score (-0.5 to 0.5)) [3] of 0.498.
With “ATGATGAC (double strand) [8-mer ATGATGAC]” the binding signal (PBM E-score (-0.5 to 0.5)) [1] was 0.497.
With “AGACTACA (double strand) [8-mer AGACTACA]” the binding signal (PBM E-score (-0.5 to 0.5)) [2] was 0.486 and the binding signal (PBM E-score (-0.5 to 0.5)) [5] was 0.487.
“AATGTCAT (double strand) [8-mer AATGTCAT]” gave a binding signal (PBM E-score (-0.5 to 0.5)) [1] of 0.487.
With “AAGGGGCC (double strand) [8-mer AAGGGGCC]” the binding signal (PBM E-score (-0.5 to 0.5)) [3] was 0.487.
Sequence “AGGCCCCT (double strand) [8-mer AGGCCCCT]” has a binding signal (PBM E-score (-0.5 to 0.5)) [3] of 0.491.
“TGGCTACA (double strand) [8-mer TGGCTACA]” gave a binding signal (PBM E-score (-0.5 to 0.5)) [2] of 0.48.
“ATTGTGAC (double strand) [8-mer ATTGTGAC]” showed a binding signal (PBM E-score (-0.5 to 0.5)) [6] of 0.494 and a binding signal (PBM E-score (-0.5 to 0.5)) [4] of 0.489.
Sequence “TGATGACA (double strand) [8-mer TGATGACA]” has a binding signal (PBM E-score (-0.5 to 0.5)) [1] of 0.495.
Sequence “AAATTGTA (double strand) [8-mer AAATTGTA]” has a binding signal (PBM E-score (-0.5 to 0.5)) [8] of 0.456.
Sequence “ATGACAAT (double strand) [8-mer ATGACAAT]” has a binding signal (PBM E-score (-0.5 to 0.5)) [1] of 0.495.
In the case of “GGACACAA (double strand) [8-mer GGACACAA]”, the binding signal (PBM E-score (-0.5 to 0.5)) [6] is reported as 0.493 and the binding signal (PBM E-score (-0.5 to 0.5)) [4] is reported as 0.473.
Sequence “CGACTACA (double strand) [8-mer CGACTACA]” has a binding signal (PBM E-score (-0.5 to 0.5)) [2] of 0.487.
